# B1: monoclonal antibody mab 166 (antibody, V domains shown)
# VH: QVQLKQSGPGLVQPSQSLSITCTVSGFSLTSYGVHWVRQSPGKGLEWLGVIWSGGDTDYNAAFISRLSISKDNSKSQLFFKMNSLRATDTAIYYCARNRGDIYYDFTYAMDYWGQGTSVTVSS
# VL: DIQMTQSPASLSASVGETVTITCRASGNIQNYLAWYQQTQGKSPQLLVYSAKTLADGVPSRFSGSGSGTQYSLKINSLQPEDFGSYYCQHFWSTPYTFGGGTKLEIKR
# notes: also called mabl66; m166
# Molecular target: T1, glutathione S transferase (pGEX-4T-2 vector control lysate) (UniProt P08515 1-218 = GST)
# T1 construct: In a bacterial lysate; also called GST; Control bacterial lysates encoding only glutathione S transferase
# T1 sequence (P08515 whole entry): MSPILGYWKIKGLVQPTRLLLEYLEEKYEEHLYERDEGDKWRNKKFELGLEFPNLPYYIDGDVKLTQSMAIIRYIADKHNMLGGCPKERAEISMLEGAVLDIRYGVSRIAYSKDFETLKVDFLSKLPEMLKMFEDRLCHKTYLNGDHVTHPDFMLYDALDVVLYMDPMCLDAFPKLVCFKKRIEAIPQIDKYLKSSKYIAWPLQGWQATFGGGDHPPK
# Test: Western or dot blot, bacterial lysate
binder,measurement,value
B1,binding result,no binding

# From patent publication US20050063985A1 (MCW RESEARCH FOUNDATION, published 2005)
